Measured values from PMC9500956, “In Vitro Characterization of the Physical Interactions between the Long Noncoding RNA TERRA and the Telomeric Proteins TRF1 and TRF2”.

Experiments:
GST-A1-50B (human) = GST-A1-50B (human) (UniProt P54274+Q15554); assay: EMSA; details: RNA EMSA: 50 mM HEPES pH 8, 1 mM DTT, 100 mM NaCl, 0.01% BSA, 2% glycerol, 50 ng/uL E. coli tRNA, 0.25 nM RNA, 20 min on ice then 10 min 25 C; dsDNA EMSA: same …
GST-AP2EAB (human) = GST-AP2EAB (human) (UniProt P54274+Q15554); assay: EMSA; details: RNA EMSA: 50 mM HEPES pH 8, 1 mM DTT, 100 mM NaCl, 0.01% BSA, 2% glycerol, 50 ng/uL E. coli tRNA, 0.25 nM RNA, 20 min on ice then 10 min 25 C; dsDNA EMSA: same …
Sequence of GST-AP2EAB (human) (P54274 whole entry, chain 1 of 2): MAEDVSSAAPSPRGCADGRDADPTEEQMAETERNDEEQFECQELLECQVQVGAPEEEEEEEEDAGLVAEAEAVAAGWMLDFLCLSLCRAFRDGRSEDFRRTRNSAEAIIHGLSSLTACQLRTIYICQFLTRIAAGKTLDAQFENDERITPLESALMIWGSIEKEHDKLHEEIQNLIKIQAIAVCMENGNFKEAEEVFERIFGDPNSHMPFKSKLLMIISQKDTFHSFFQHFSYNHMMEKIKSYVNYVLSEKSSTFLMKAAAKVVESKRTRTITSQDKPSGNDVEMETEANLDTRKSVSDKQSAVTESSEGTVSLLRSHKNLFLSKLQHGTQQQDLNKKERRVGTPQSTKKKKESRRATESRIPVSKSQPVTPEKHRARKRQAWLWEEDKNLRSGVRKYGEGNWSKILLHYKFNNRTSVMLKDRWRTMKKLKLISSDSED
Sequence of GST-AP2EAB (human) (Q15554 whole entry, chain 2 of 2): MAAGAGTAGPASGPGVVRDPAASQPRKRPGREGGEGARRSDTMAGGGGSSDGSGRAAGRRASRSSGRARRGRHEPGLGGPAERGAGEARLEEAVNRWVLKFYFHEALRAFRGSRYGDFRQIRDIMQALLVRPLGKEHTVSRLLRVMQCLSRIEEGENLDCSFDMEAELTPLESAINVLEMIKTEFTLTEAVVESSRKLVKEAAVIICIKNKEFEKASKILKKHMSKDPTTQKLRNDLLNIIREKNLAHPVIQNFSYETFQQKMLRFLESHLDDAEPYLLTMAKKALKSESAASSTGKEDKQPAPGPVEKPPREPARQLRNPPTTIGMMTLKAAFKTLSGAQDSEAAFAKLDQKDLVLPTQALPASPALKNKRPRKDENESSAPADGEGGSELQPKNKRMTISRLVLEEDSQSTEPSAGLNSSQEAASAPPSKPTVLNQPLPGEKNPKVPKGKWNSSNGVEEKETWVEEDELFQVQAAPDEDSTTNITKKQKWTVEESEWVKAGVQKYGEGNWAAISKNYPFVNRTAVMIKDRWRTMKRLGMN

GST-TRF2ΔB = GST-TRF2ΔB (human, UniProt Q15554 87-542, del43-86); assay: EMSA; E. coli tRNA; RNA EMSA: 50 mM HEPES pH 8, 1 mM DTT, 100 mM NaCl, 0.01% BSA, 2% glycerol, 50 ng/uL E. coli tRNA, 0.25 nM RNA, 20 min on ice then 10 min 25 C; dsDNA EMSA: same; details: protein: recombinant, tags: N-terminal GST, chain copies: 2, label: 5'-32P
Sequence of GST-TRF2ΔB (Q15554 87-542, stated change not applied): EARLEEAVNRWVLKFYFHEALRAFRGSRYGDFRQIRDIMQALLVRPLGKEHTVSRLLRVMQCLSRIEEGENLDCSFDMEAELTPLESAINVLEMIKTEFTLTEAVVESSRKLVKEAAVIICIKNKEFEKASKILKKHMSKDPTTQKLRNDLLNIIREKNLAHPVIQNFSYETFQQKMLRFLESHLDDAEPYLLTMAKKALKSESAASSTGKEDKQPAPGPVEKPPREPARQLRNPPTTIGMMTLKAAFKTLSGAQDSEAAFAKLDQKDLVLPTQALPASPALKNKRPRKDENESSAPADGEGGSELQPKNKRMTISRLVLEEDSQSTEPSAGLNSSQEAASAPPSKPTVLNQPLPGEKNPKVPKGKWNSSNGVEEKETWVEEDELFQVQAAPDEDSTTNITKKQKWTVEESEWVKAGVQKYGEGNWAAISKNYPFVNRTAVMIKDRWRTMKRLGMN

GST-TRF1ΔA = GST-TRF1ΔA (human, UniProt P54274 67-439, del1-66); assay: as above; details: protein: recombinant, tags: N-terminal GST, chain copies: 2, label: 5'-32P
Sequence of GST-TRF1ΔA (P54274 67-439, stated change not applied): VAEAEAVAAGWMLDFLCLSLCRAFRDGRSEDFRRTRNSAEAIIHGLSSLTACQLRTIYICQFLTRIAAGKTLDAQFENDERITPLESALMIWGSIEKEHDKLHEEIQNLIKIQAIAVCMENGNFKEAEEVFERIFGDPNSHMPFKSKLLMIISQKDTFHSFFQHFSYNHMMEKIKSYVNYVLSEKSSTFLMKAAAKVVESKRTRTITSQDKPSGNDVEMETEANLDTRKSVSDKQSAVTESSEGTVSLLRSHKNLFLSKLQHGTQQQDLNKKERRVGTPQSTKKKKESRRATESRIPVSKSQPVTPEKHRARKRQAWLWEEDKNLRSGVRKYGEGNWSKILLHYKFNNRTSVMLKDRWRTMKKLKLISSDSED

GST-B R13-30A = target: T1, GST-B R13-30A (human, UniProt Q15554 43-86, R55A;R59A;R60A;R63A;R67A;R69A;R70A;R72A); assay: as above; details: protein: recombinant; tags: N-terminal GST; label: 5'-32P; G4-forming
T1 chain: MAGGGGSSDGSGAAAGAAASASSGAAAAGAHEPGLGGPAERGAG

Sequence of GST-A1-50B (human) (P54274 whole entry, chain 1 of 2): as the sequence (P54274 whole entry, chain 1 of 2) above
Sequence of GST-A1-50B (human) (Q15554 whole entry, chain 2 of 2): as the sequence (Q15554 whole entry, chain 2 of 2) above

With “UUAGGGUUAGGGUUAGGGUUAGGGUUAGGGUUAGGGUUAGGGUUAGGGUUAGGGUUAGGGUUAGGGUUAGGG [TERRA (UUAGGG)12]” the binding signal (% of B domain alone) (GST-A1-50B (human)) was 60 and the binding signal (% binding regained at 320 nM) (GST-AP2EAB (human)) was 80.

AUAGGGAUAGGGAUAGGGAUAGGGAUAGGG (structured_RNA) [MUT3 (AUAGGG)5]: binds (GST-TRF2ΔB; G4-forming); binds (GST-TRF1ΔA; G4-forming).

AAAGGGAAAGGGAAAGGGAAAGGGAAAGGG (structured_RNA) [MUT4 (AAAGGG)5]: binds (GST-TRF2ΔB; G4-forming); binds (GST-TRF1ΔA; G4-forming).

UUACCGUUACCGUUACCGUUACCGUUACCG (ssRNA) [MUT2 (UUACCG)5]: no binding (GST-TRF2ΔB; not G4-forming); no binding (GST-TRF1ΔA; not G4-forming).

UUAGGGUUAGGGUUAGGGUUAGGGUUAGGG (structured_RNA) [TERRA (UUAGGG)5]: binds (GST-TRF2ΔB; G4-forming); binds (GST-TRF1ΔA; G4-forming); no binding (GST-B R13-30A).

UUACGGUUACGGUUACGGUUACGGUUACGG (ssRNA) [MUT1 (UUACGG)5]: no binding (GST-TRF2ΔB; not G4-forming); no binding (GST-TRF1ΔA; not G4-forming).
